Data on two substances can be found in patent US7217700.

The target in one experiment is T1, CCR6 (human) (UniProt P51684).
T1 sequence (looked up): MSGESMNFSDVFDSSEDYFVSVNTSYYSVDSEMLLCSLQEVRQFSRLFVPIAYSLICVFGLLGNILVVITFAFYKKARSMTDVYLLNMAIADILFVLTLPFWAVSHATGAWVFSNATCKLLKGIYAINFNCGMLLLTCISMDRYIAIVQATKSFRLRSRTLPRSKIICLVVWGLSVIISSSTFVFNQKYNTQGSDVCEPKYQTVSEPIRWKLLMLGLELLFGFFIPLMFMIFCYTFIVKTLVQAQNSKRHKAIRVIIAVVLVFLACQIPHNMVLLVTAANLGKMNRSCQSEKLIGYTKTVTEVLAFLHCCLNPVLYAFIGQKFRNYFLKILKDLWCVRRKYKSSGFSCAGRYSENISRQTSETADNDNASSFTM
The experiment in a line: cell-based or functional assay.

The target of the next experiment is CCR7 (human) (UniProt P32248). The experiment in a line: cell-based or functional assay.
Sequence of UniProt P32248 (P32248 25-378): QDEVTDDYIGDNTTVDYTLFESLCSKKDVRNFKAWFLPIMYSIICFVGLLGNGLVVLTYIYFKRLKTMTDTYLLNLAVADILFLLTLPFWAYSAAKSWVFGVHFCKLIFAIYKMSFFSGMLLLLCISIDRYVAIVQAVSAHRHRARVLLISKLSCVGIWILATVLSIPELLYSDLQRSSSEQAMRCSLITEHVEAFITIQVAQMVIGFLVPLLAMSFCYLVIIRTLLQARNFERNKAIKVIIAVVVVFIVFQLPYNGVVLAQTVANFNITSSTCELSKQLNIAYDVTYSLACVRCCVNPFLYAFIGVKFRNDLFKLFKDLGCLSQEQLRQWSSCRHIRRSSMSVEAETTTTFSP

In the experiment with CCR6 (human), “Recombinant human MIP-3α (from UniProt P78556 27-96) (ligand)” gave a Ca2+ flux (Indo-1 fluorimetry) in immature CD34+-derived DC; concentration giving the maximal flux of 30 ng/mL, a chemotaxis (Boyden microchamber) of DC precursors (CD1a-CD86-); concentration at which the response is detected of 1 to 10 ng/mL and a chemotaxis (Boyden microchamber) of immature DC (CD1a+CD86-); concentration needed to attract the cells above 300 ng/mL.
Take “Recombinant human MIP-3β (from UniProt Q99731 22-98) (ligand)”: in the experiment with CCR7 (human), the Ca2+ flux (Indo-1 fluorimetry) in mature CD34+-derived DC; concentration giving the maximal flux is 30 ng/mL, the chemotaxis (Boyden microchamber) of mature DC (CD1a+CD86+); concentration needed to recruit the cells stood at 300 ng/mL and the chemotaxis of CD40L-activated CD34+-derived DC; concentration required at 48 h was in the range of 100 to 300 ng/mL.
